Laboratory results from the supplement of paper PMC9112550, “Optimization of the antimicrobial peptide Bac7 by deep mutational scanning” (BMC Biology, 2022).

system: Escherichia coli TOP10; experiment: shrunken log2 fold change of peptide-encoding DNA abundance (4.5 h post-induction vs induction); higher = less antimicrobial activity (less host growth inhibition); conditions: time post-induction: 4.5 h; library: site-saturation at positions 5, 18, 19, 20
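Note: peptides expressed intracellularly from a pBAD plasmid library in pooled LB shake-flask culture, induced with 0.3% L-arabinose, DNA abundance read by NGS, three biological replicates, DESeq2 with apeglm shrinkage.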

RRIRIRPPRLPRPRPRPKVLPRP and RRIRERPPRLPRPRPRPDALPRP are within 0.2 log units of each other in “shrunken log2 fold change” value: -0.0165 for the first, -0.0722 for the second.

First: RRIRARPPRLPRPRPRPLGHPRP
Second: RRIRTRPPRLPRPRPRPHIWPRP
The “shrunken log2 fold change” value of the first is higher: 0.134 for the first, -0.103 for the second.

Compared with RRIRARPPRLPRPRPRPMFQPRP, RRIRWRPPRLPRPRPRPSDDPRP is higher in “shrunken log2 fold change” value: -0.0957 for the first, 0.328 for the second.

RRIRMRPPRLPRPRPRPWHHPRP and RRIRIRPPRLPRPRPRPVKLPRP are within 0.2 log units of each other in “shrunken log2 fold change” value: -0.0514 for the first, -0.0316 for the second.

Going from RRIRIRPPRLPRPRPRPRGRPRP to RRIRGRPPRLPRPRPRPYMLPRP, the “shrunken log2 fold change” value falls from 0.229 to -0.0745.

First: RRIRPRPPRLPRPRPRPTMSPRP
Second: RRIRVRPPRLPRPRPRPNKVPRP
The “shrunken log2 fold change” value of the first is higher: 0.0176 for the first, -0.271 for the second.

Going from RRIRWRPPRLPRPRPRPDLCPRP to RRIRQRPPRLPRPRPRPGMCPRP, the “shrunken log2 fold change” value falls from 0.777 to 0.0819.

RRIRPRPPRLPRPRPRPNMFPRP and RRIRTRPPRLPRPRPRPQDFPRP are within 0.2 log units of each other in “shrunken log2 fold change” value: -0.254 for the first, -0.29 for the second.

Compared with RRIRLRPPRLPRPRPRPKCKPRP, RRIRKRPPRLPRPRPRPRFNPRP is higher in “shrunken log2 fold change” value: -0.223 for the first, 0.0969 for the second.

Compared with RRIRMRPPRLPRPRPRPWSLPRP, RRIRARPPRLPRPRPRPCHHPRP is higher in “shrunken log2 fold change” value: -0.385 for the first, -0.0114 for the second.

RRIRRRPPRLPRPRPRPYQRPRP and RRIRPRPPRLPRPRPRPSKRPRP are within 0.2 log units of each other in “shrunken log2 fold change” value: -0.0429 for the first, -0.00797 for the second.

Going from RRIRTRPPRLPRPRPRPNSQPRP to RRIRLRPPRLPRPRPRPNIMPRP, the “shrunken log2 fold change” value falls from -0.00223 to -0.602.

RRIRFRPPRLPRPRPRPVCAPRP and RRIRNRPPRLPRPRPRPMDKPRP are within 0.2 log units of each other in “shrunken log2 fold change” value: 0.198 for the first, 0.00658 for the second.

Compared with RRIRARPPRLPRPRPRPAAFPRP, RRIRSRPPRLPRPRPRPPKNPRP is lower in “shrunken log2 fold change” value: 0.787 for the first, 0.223 for the second.

First: RRIRLRPPRLPRPRPRPLCQPRP
Second: RRIRVRPPRLPRPRPRPTWVPRP
The “shrunken log2 fold change” value of the first is lower: -0.125 for the first, 0.228 for the second.

Going from RRIRRRPPRLPRPRPRPRCPPRP to RRIRSRPPRLPRPRPRPGPLPRP, the “shrunken log2 fold change” value falls from 0.605 to 0.292.

Going from RRIRQRPPRLPRPRPRPSIVPRP to RRIRFRPPRLPRPRPRPLTHPRP, the “shrunken log2 fold change” value rises from -0.323 to -0.0881.

RRIRDRPPRLPRPRPRPNWMPRP and RRIRMRPPRLPRPRPRPNVAPRP are within 0.2 log units of each other in “shrunken log2 fold change” value: -0.0161 for the first, 0.099 for the second.

RRIRIRPPRLPRPRPRPMECPRP and RRIRERPPRLPRPRPRPIAQPRP are within 0.2 log units of each other in “shrunken log2 fold change” value: -0.153 for the first, -0.0491 for the second.

RRIRFRPPRLPRPRPRPAKSPRP and RRIRHRPPRLPRPRPRPGGYPRP are within 0.2 log units of each other in “shrunken log2 fold change” value: -0.135 for the first, -0.258 for the second.

Compared with RRIRTRPPRLPRPRPRPYNEPRP, RRIRRRPPRLPRPRPRPPVTPRP is higher in “shrunken log2 fold change” value: -1.35 for the first, 0.538 for the second.

RRIRIRPPRLPRPRPRPYRSPRP and RRIRFRPPRLPRPRPRPEHQPRP are within 0.2 log units of each other in “shrunken log2 fold change” value: -0.186 for the first, -0.1 for the second.

Compared with RRIRVRPPRLPRPRPRPWGYPRP, RRIRKRPPRLPRPRPRPGKHPRP is higher in “shrunken log2 fold change” value: -0.0139 for the first, 0.258 for the second.

First: RRIRRRPPRLPRPRPRPGTIPRP
Second: RRIRRRPPRLPRPRPRPKWEPRP
The “shrunken log2 fold change” value of the first is lower: -0.502 for the first, 0.364 for the second.

Going from RRIRPRPPRLPRPRPRPMVFPRP to RRIRNRPPRLPRPRPRPCCTPRP, the “shrunken log2 fold change” value rises from -0.166 to 2.47.

Going from RRIRVRPPRLPRPRPRPSPRPRP to RRIRYRPPRLPRPRPRPFKWPRP, the “shrunken log2 fold change” value falls from 0.415 to -0.278.

Compared with RRIRQRPPRLPRPRPRPSECPRP, RRIRIRPPRLPRPRPRPEQMPRP is higher in “shrunken log2 fold change” value: -0.0674 for the first, 0.224 for the second.

RRIRNRPPRLPRPRPRPFAHPRP and RRIRPRPPRLPRPRPRPWTKPRP are within 0.2 log units of each other in “shrunken log2 fold change” value: -0.00369 for the first, 0.0459 for the second.

Going from RRIRERPPRLPRPRPRPHTGPRP to RRIRNRPPRLPRPRPRPLEEPRP, the “shrunken log2 fold change” value rises from -1.1 to 0.216.

Going from RRIRCRPPRLPRPRPRPQKPPRP to RRIRGRPPRLPRPRPRPHHMPRP, the “shrunken log2 fold change” value falls from 0.0368 to -0.219.

Going from RRIRARPPRLPRPRPRPLRKPRP to RRIRKRPPRLPRPRPRPISPPRP, the “shrunken log2 fold change” value falls from 0.62 to 0.305.

Going from RRIRPRPPRLPRPRPRPEKMPRP to RRIRCRPPRLPRPRPRPQFDPRP, the “shrunken log2 fold change” value falls from 0.742 to -0.211.

Compared with RRIRGRPPRLPRPRPRPHMTPRP, RRIRIRPPRLPRPRPRPAISPRP is lower in “shrunken log2 fold change” value: 1.45 for the first, 0.0106 for the second.

Compared with RRIRYRPPRLPRPRPRPVLEPRP, RRIRRRPPRLPRPRPRPIKGPRP is higher in “shrunken log2 fold change” value: -0.0835 for the first, 0.174 for the second.

Going from RRIRTRPPRLPRPRPRPPMPPRP to RRIRHRPPRLPRPRPRPYVQPRP, the “shrunken log2 fold change” value falls from 0.144 to -1.29.

RRIRGRPPRLPRPRPRPGTLPRP and RRIRCRPPRLPRPRPRPTAVPRP are within 0.2 log units of each other in “shrunken log2 fold change” value: 0.351 for the first, 0.393 for the second.

RRIRLRPPRLPRPRPRPNQWPRP and RRIRNRPPRLPRPRPRPMLSPRP are within 0.2 log units of each other in “shrunken log2 fold change” value: -0.117 for the first, 0.081 for the second.

First: RRIRNRPPRLPRPRPRPARNPRP
Second: RRIRYRPPRLPRPRPRPLHQPRP
The “shrunken log2 fold change” value of the first is higher: -0.0209 for the first, -0.608 for the second.

RRIRHRPPRLPRPRPRPKMIPRP and RRIRVRPPRLPRPRPRPDSEPRP are within 0.2 log units of each other in “shrunken log2 fold change” value: -0.254 for the first, -0.105 for the second.

Going from RRIRFRPPRLPRPRPRPLDAPRP to RRIRSRPPRLPRPRPRPDSNPRP, the “shrunken log2 fold change” value falls from 0.0999 to -0.529.

RRIRKRPPRLPRPRPRPTTIPRP and RRIRSRPPRLPRPRPRPKLLPRP are within 0.2 log units of each other in “shrunken log2 fold change” value: 0.259 for the first, 0.325 for the second.

Going from RRIRIRPPRLPRPRPRPPWRPRP to RRIRVRPPRLPRPRPRPQHNPRP, the “shrunken log2 fold change” value falls from 0.507 to -0.604.

RRIRNRPPRLPRPRPRPTAKPRP and RRIRIRPPRLPRPRPRPGILPRP are within 0.2 log units of each other in “shrunken log2 fold change” value: -0.136 for the first, -0.128 for the second.

RRIRQRPPRLPRPRPRPMHDPRP and RRIRFRPPRLPRPRPRPVWAPRP are within 0.2 log units of each other in “shrunken log2 fold change” value: -0.0216 for the first, 0.137 for the second.

Compared with RRIRERPPRLPRPRPRPLESPRP, RRIRRRPPRLPRPRPRPWRYPRP is higher in “shrunken log2 fold change” value: -0.0735 for the first, 0.322 for the second.

RRIRVRPPRLPRPRPRPPVFPRP and RRIRYRPPRLPRPRPRPVKKPRP are within 0.2 log units of each other in “shrunken log2 fold change” value: 0.00719 for the first, -0.0286 for the second.

RRIRKRPPRLPRPRPRPDWCPRP and RRIRRRPPRLPRPRPRPRYPPRP are within 0.2 log units of each other in “shrunken log2 fold change” value: 0.292 for the first, 0.252 for the second.

Compared with RRIRPRPPRLPRPRPRPFKPPRP, RRIRGRPPRLPRPRPRPQDHPRP is higher in “shrunken log2 fold change” value: -0.387 for the first, 0.254 for the second.

First: RRIRFRPPRLPRPRPRPHCDPRP
Second: RRIRLRPPRLPRPRPRPCIQPRP
The “shrunken log2 fold change” value of the first is higher: -0.252 for the first, -0.675 for the second.

RRIRARPPRLPRPRPRPTEIPRP and RRIRRRPPRLPRPRPRPQPFPRP are within 0.2 log units of each other in “shrunken log2 fold change” value: -0.0477 for the first, -0.0201 for the second.

RRIRRRPPRLPRPRPRPIFMPRP and RRIRPRPPRLPRPRPRPARTPRP are within 0.2 log units of each other in “shrunken log2 fold change” value: 0.294 for the first, 0.396 for the second.

Going from RRIRMRPPRLPRPRPRPMQSPRP to RRIRPRPPRLPRPRPRPESAPRP, the “shrunken log2 fold change” value falls from 0.886 to 0.396.

Going from RRIRCRPPRLPRPRPRPGEPPRP to RRIRRRPPRLPRPRPRPRPYPRP, the “shrunken log2 fold change” value rises from 0.0366 to 1.17.

Compared with RRIRWRPPRLPRPRPRPTASPRP, RRIRPRPPRLPRPRPRPASRPRP is lower in “shrunken log2 fold change” value: 0.977 for the first, 0.0846 for the second.

For RRIRPRPPRLPRPRPRPFCFPRP, the “shrunken log2 fold change” value was 0.337.
